Paper PMC5618021

Tests used:
[1] = molecular target: MERS-five-helix bundle (MERS-5HB) (MERS-CoV) (UniProt K0BRG7); experiment: ELISA
MERS-HR2P (MERS-CoV) [2] = experiment: BLI
MERS-HR2P (MERS-CoV) [3] = experiment: ELISA

Substance	EC50 [1]	Kd (MERS-HR2P (MERS-CoV) [2])	koff (MERS-HR2P (MERS-CoV) [2])	kon (MERS-HR2P (MERS-CoV) [2])	EC50 (MERS-HR2P (MERS-CoV) [3])
MERS-HR2P (peptide)	31.8 nM	–	–	–	–
MERS-five-helix bundle (MERS-5HB) (from UniProt K0BRG7) (designed binder)	–	0.24 nM	1.26e-05 s⁻¹	52600 M⁻¹ s⁻¹	5.4 nM
